Several values for one entry are separate records, joined by “and”; a condition that tells them apart may be missing. Equal entries are not always repeated. Ends that are not written are not given here.
Tests used:
[1] = Plasma BUN, assessment of renal injury (Example 14); type: in vivo, mice
Method: (§1) This example illustrates assessment of renal injury by peptides of this disclosure. Mice were injected intravenously at a dose of 100 nmol, which is approximately 16 mg/kg. PBS was administered as a negative control. At 24 hours post-peptide administration, mice were euthanized and plasma blood urea nitrogen (BUN) and plasma creatinine were measured. The blood urea nitrogen (BUN) assay was performed to assess renal toxicity with a commercially available kit. Plasma creatinine concentrations were determined using the colorimetrically corrected Jaffe reaction method. Additionally, the kidneys from these mice were removed, sectioned, and stained using periodic acid Schiff (PAS). […] Histological analysis corroborated the mRNA/protein data.

[2] = Plasma creatinine, Jaffe reaction method (Example 14); type: in vivo, mice; details: 100 nmol iv
Method: as §1

MCP-1 mRNA = assay: Stress-induced mRNA by RT-PCR, MCP-1; type: in vivo, mice; details: four hours post-peptide administration
Method: (§2) At four hours post-peptide administration, potential renal injury was assessed by measuring three stress-induced mRNAs (MCP-1, NGAL, and TNFa).

TNFa mRNA = assay: Stress-induced mRNA by RT-PCR, TNFa; type: in vivo, mice; details: four hours post-peptide administration
Method: as §2

NGAL mRNA = assay: Stress-induced mRNA by RT-PCR, NGAL; type: in vivo, mice; details: four hours post-peptide administration
Method: as §2

HO-1 mRNA = assay: mRNA by RT-PCR, HO-1; type: in vivo, mice; details: four hours post-peptide administration
[3] = Whole body autoradiography of 14C labeled peptides, renal cortex and blood; type: in vivo, mice; details: for Signal ratio Kidney:Blood (3 hours) / Signal ratio Kidney:Blood (24 hours): renal cortex vs blood from the ventricle, 100 nmol iv; for Pixel density-Bkg/area (3 hours) / Pixel density-Bkg/area (24 hours): renal cortex, 100 nmol 14C labeled peptide iv
Description: This example describes radiolabeling of peptides of this disclosure. Several knotted peptides were radiolabeled by reductive methylation with ^14C formaldehyde and sodium cyanoborohydride with standard techniques. The sequences were engineered to have the amino acids, “G” and “S” at the N terminus. See Methods in Enzymology V91:1983 p. 570 and JBC 254(11):1979 p. 4359. An excess of formaldehyde was used to ensure complete methylation (dimethylation of every free amine). The labeled peptides were isolated via solid-phase extraction on Strata-X columns (Phenomenex 8B-S100-AAK), rinsed with water with 5% methanol, and recovered in methanol with 2% formic acid. Solvent was subsequently removed in a blowdown evaporator with gentle heat and a stream of nitrogen gas. The final product was verified and characterized by high performance liquid chromatography (HPLC).
This example illustrates accumulation of peptides of the present disclosure in kidneys measured by whole body autoradiography. Peptides of the present disclosure were radiolabeled as described in EXAMPLE 2. 100 nmol of ^14C labeled peptides were administered intravenously in mice. Radiolabeled peptide signal was quantified in the renal cortex and blood from the ventricle in 2-3 sections per mouse in 2 mice total. Whole body autoradiography analysis was performed with AIDA.
SEQ ID NO: 55 and SEQ ID NO: 119 ([…]), a linearized version of SEQ ID NO: 55, were radiolabeled with ^14C as described in EXAMPLE 2 and administered intravenously in mice at a dose of 100 nmol. Radiolabeled peptide signal was quantified in the renal cortex and blood from the ventricle in 2-3 sections per mouse in 2 mice total. Whole body autoradiography analysis was performed with AIDA.

trypsin = assay: Peptide stability in the presence of trypsin, RP-HPLC; type: in vitro ADME; details: 5 μg trypsin, pH 7.0, 30 minutes at 37.5° C.
Method: (§3) This example describes peptide stability in the presence of pepsin, trypsin, a reducing agent, or elevated temperature. Peptides were first suspended in 500 µl of ddH2O to a stock concentration of 2 mg/ml. […] These reactions were then quenched with 5 μg of soybean trypsin inhibitor (I) and, in some cases, 10 mM dithiothreitol (DTT). […] Temperature stability was tested by incubating peptides in non-reducing conditions at 70° C. for 1 hour. Stability was evaluated by RP-HPLC.

pepsin = assay: Peptide stability in the presence of pepsin, RP-HPLC; type: in vitro ADME; details: 20 μg pepsin, pH 1.05, 30 minutes at 37.5° C.
Method: as §3

[4] = Peptide stability to a reducing agent (DTT), RP-HPLC; type: physicochemical; details: 10 mM DTT in PBS, room temperature, 30 minutes
Method: as §3

[5] = Competitive renal uptake studies, fluorescence imaging of whole organs; type: in vivo, mice
Method: This example describes competitive uptake studies of peptides of this disclosure in kidneys. Peptides of this disclosure were compared to known kidney homers (“competitors”) to assess the efficiency and strength of kidney targeting. Three competitors were tested against a peptide of SEQ ID NO: 4, and kidney uptake was quantified by fluorescence imaging of whole organs on a Spectrum IVIS imager.
Kidneys from uninjected mice were used as a negative control. Fluorescence signal in each group was quantified to determine the average radiant efficiency in the kidneys from three mice per cohort. Data are shown as mean and error bars indicate standard deviation. A p-value of 0.0081 was calculated by a T-test, and the error bars indicate standard deviation. In this experiment, the unlabeled SEQ ID NO: 4 peptide competed with the SEQ ID NO: 4-AF647 as shown by decreased fluorescence and thus, decreased accumulation of the dye labeled peptide in the kidney. […] Fluorescence signal in each group was quantified to determine the average radiant efficiency in the kidneys from three mice per cohort. Data are shown as mean and error bars indicate standard deviation. Kidney uptake of a peptide of SEQ ID NO: 4-AF647 was not dampened by SEQ ID NO: 121 peptide even at the highest ratio of competitor. […] Fluorescence signal in each group was quantified to determine the average radiant efficiency in the kidneys from three mice per cohort. Data are shown as mean and error bars indicate standard deviation. A p-value of 0.015 was calculated by a Student's unpaired t-test.

[6] = Fluorescent peptide delivery to kidneys, whole body fluorescence analysis; type: in vivo; details: 10 nmol iv, average and standard deviation from two mice
Method: This example illustrates fluorescent peptide delivery to kidneys. Peptides were labeled by reaction with NHS esters of Cy5.5 or AlexaFluor 647 (AF647). For comparison, the free […] NHS esters were hydrolyzed to produce unreactive Cy5.5-COOH and AF647-COOH. A dose of 10 nmol of dye-labeled peptide or dye alone was administered intravenously and fluorescence was measured at 3 hours, 24 hours, and 48 hours after administration. At each time point, mice were frozen and sectioned for whole body fluorescence analysis, which was performed by scanning the sections on the Odyssey 2.1 at 84 um resolution using the 700 channel.
Average and standard deviation are presented from two mice per group.

[7] = Blood urea nitrogen (BUN) assay in plasma, renal biocompatibility (Example 4); type: in vivo, mice; details: 100 nmol per mouse intravenously, after 24 hours, one value per mouse
Method: This example describes renal biocompatibility of peptides of this disclosure. The peptides of SEQ ID NO: 18, SEQ ID NO: 20, SEQ ID NO: 21, SEQ ID NO: 26, SEQ ID NO: 36, SEQ ID NO: 39, SEQ ID NO: 45 and SEQ ID NO: 53 were intravenously dosed into mice at 100 nmol per mouse. After 24 hours, mice were anesthesized with Ketamine-Xylazine and euthanized. Plasma and kidneys were removed as quickly as possible after euthanization. A blood urea nitrogen (BUN) assay was performed to assess renal toxicity with a commercially available kit.
The average BUN concentration in plasma for naïve mice was 25 mg/dL, with a standard error of 2 mg/dL. The average BUN concentration in plasma for peptide-dosed mice was 21, with a standard error of 1 mg/dL.

[8] = Kidney histology, periodic acid Schiff (PAS) stain; type: in vivo, mice; details: 24 hours after intravenous administration of 100 nmol
Method: as §1

[9] = Accumulation of 14C-methylated peptide in renal tissue (Example 3); type: in vivo, mice; details: 14C autoradiography, iv 30-100 nmol per mouse; 3 hours and 24 hours
Method: This example describes accumulation of peptides of this disclosure in renal tissue. ^14C-methylated knotted peptides were intravenously dosed into mice at 30-100 nmol per mouse. […] Cryosectioning was performed on a Bright-Hacker cryotome, taking 40 μm sagittal sections. Collected sections were allowed to freeze dry at −20° C. for 48-72 hours before being exposed to phosphor imager plates. Plates were exposed for 7 days then scanned on a RayTest CR-Bio35 scanner. Analysis was performed with AIDA WBA analysis software.

[10] = Temperature stability at 70° C., RP-HPLC; type: physicochemical; details: non-reducing conditions, 70° C. for 1 hour
Method: as §3

[11] = Table 4, 100 nmol iv, time not stated for this column (mRNAs at four hours)
[12] = Table 4, time not stated for this column (mRNAs at four hours)
[13] = Table 3, 100 nmol iv (approximately 16 mg/kg), 24 hours post-peptide administration
[14] = Table 3, 24 hours post-peptide administration

Compound: GSQFTNVSCTTSRECWSVCQRLHNTSRGRCMNRRCRCYS [SEQ ID NO: 5]
- Plasma BUN [1, 11]: 23 mg/dL
- Plasma Creatinine [2, 12]: 0.23 mg/dL
- mMCP-1/GAPDH (MCP-1 mRNA): 0.79
- mTNFa/GAPDH (TNFa mRNA): 2.55
- mNGAL/GAPDH (NGAL mRNA): 1.76
- mHO-1/GAPDH (HO-1 mRNA): 0.62
- Signal ratio Kidney:Blood (3 hours) [3]: 27.2
- Signal ratio Kidney:Blood (24 hours) [3]: 6.4
- Pixel density-Bkg/area (3 hours) [3]: 1.40E+07
- Pixel density-Bkg/area (24 hours) [3]: 1.81E+06
- Trypsin (trypsin): Resistant
- Pepsin (pepsin): Resistant
- Reduction [4]: Resistant

Compound: KKEEEKKEEEKKEEEKK [SEQ ID NO: 121, reference compound]
- competition with kidney uptake of SEQ ID NO: 4-AF647 (FIG. 11) ([5]; 2 nmol SEQ ID NO: 4-AF647 co-injected with 100 or 2000 nmol competitor, 1 hour): failed to compete

Compound: Cy5.5
- Fluorescence Signal in Kidneys 3 hours ([6]; 3 hours): 416 ± 170
- Fluorescence Signal in Kidneys 24 hours ([6]; 24 hours): 88 ± 8
- Fluorescence Signal in Kidneys 48 hours ([6]; 48 hours): 58 ± 11

Compound: GSQKILSNRCNNSSECIPHCIRIFGTRAAKCINRKCYCYP [SEQ ID NO: 20]
- Peptide BUN [7]: 29 mg/dL and 21 mg/dL
- Plasma BUN [1, 13]: 25 mg/dL
- Plasma Creatinine [2, 14]: 0.5 mg/dL
- renal physiology (PAS histology, FIG. 24) [8]: normal renal physiology
- Trypsin (trypsin): Partially Resistant
- Reduction [4]: Resistant

Compound: GSSCEPGRTFRDRCNTCRCGADGRSAACTLRACPNQ [SEQ ID NO: 4]
- renal signal pattern [9]: interacting with the kidney, likely cells of the proximal tubule
- renal uptake in competition with unlabeled SEQ ID NO: 4 (FIG. 10) ([5]; 2 nmol SEQ ID NO: 4-AF647 co-injected with 0, 10 or 50 nmol unlabeled peptide, 4 hours): specific and saturable

Compound: GSSCARPRENCNRMNILCCRGECVCPTFGDCFCYGD [SEQ ID NO: 54]
- Plasma BUN [1, 11]: 26 mg/dL
- Plasma Creatinine [2, 12]: 0.26 mg/dL
- mMCP-1/GAPDH (MCP-1 mRNA): 0.74
- mTNFa/GAPDH (TNFa mRNA): 2.42
- mNGAL/GAPDH (NGAL mRNA): 1.58
- mHO-1/GAPDH (HO-1 mRNA): 0.65
- Signal ratio Kidney:Blood (3 hours) [3]: 0.8
- Signal ratio Kidney:Blood (24 hours) [3]: 7.2
- Pixel density-Bkg/area (3 hours) [3]: 1.48E+06
- Pixel density-Bkg/area (24 hours) [3]: 1.95E+06

Compound: GSDRDSCIDKSRCSKYGYYQECQDCCKKAGHNGGTCMFFKCKCA [SEQ ID NO: 21]
- Peptide BUN [7]: 23 mg/dL and 17 mg/dL
- Plasma BUN [1, 13]: 20 mg/dL
- Plasma Creatinine [2, 14]: 0.33 mg/dL
- renal physiology (PAS histology, FIG. 24) [8]: normal renal physiology
- Trypsin (trypsin): Partially Resistant
- Reduction [4]: Not Resistant

Compound: GSQDKCKKVYENYPVSKCQLANQCNYDCKLDKHARSGECFYDEKRNLQCICDYCEY [SEQ ID NO: 39]
- Peptide BUN [7]: 23 mg/dL and 18 mg/dL
- Plasma BUN [1, 13]: 20.5 mg/dL
- Plasma Creatinine [2, 14]: 0.32 mg/dL
- renal physiology (PAS histology, FIG. 24) [8]: normal renal physiology
- Trypsin (trypsin): Partially Resistant
- Reduction [4]: Not Resistant

Compound: GSQFTDVKCTGSKQCWPVCKQMFGKPNGKCMNGKCRCYS [SEQ ID NO: 26]
- Peptide BUN [7]: 19 mg/dL
- Plasma BUN [1, 13]: 19 mg/dL
- Plasma Creatinine [2, 14]: 0.33 mg/dL
- renal physiology (PAS histology, FIG. 24) [8]: normal renal physiology
- Trypsin (trypsin): Partially Resistant
- Reduction [4]: Not Resistant

Compound: CNCCC(Oc1ccc(C(F)(F)F)cc1)c1ccccc1 (stereo not drawn) [fluoxetine, reference compound]
- renal signal pattern [9]: non-interactive passage through the kidneys

Compound: GSSCEPGTTFRDRCNTCRCGSDGRSAACTLRACPQ [SEQ ID NO: 46]
- Plasma BUN [1, 11]: 22 mg/dL
- Plasma Creatinine [2, 12]: 0.29 mg/dL
- mMCP-1/GAPDH (MCP-1 mRNA): 0.64
- mTNFa/GAPDH (TNFa mRNA): 2.87
- mNGAL/GAPDH (NGAL mRNA): 1.39
- mHO-1/GAPDH (HO-1 mRNA): 0.58
- Signal ratio Kidney:Blood (3 hours) [3]: 4.7
- Signal ratio Kidney:Blood (24 hours) [3]: 6
- Pixel density-Bkg/area (3 hours) [3]: 8.83E+05
- Pixel density-Bkg/area (24 hours) [3]: 1.49E+06

Compound: GSVFINVKCRGSPECLPKCKEAIGKSAGKCMNGKCKCYP [SEQ ID NO: 36]
- Peptide BUN [7]: 22 mg/dL and 21 mg/dL
- Plasma BUN [1, 13]: 21.5 mg/dL
- Plasma Creatinine [2, 14]: 0.4 mg/dL
- renal physiology (PAS histology, FIG. 24) [8]: normal renal physiology
- Trypsin (trypsin): Not Resistant
- Pepsin (pepsin): Resistant
- Temperature (70° C.) [10]: Resistant
- Reduction [4]: Not Resistant
